Reference: publication PMC7040040

Experiments:
[1] = target: humanized PBD-C06 with A97 of the VH framework substituted by murine T97 (human); assay: SPR; Biacore 3000; antibody captured on a CM5 chip via immobilised anti-mouse or anti-human antibody; monomeric Aβ peptides injected (240 µl, 30 µl/min), running buffer HBS-EP; 1:1 Langmuir binding model
[2] = target: humanized PBD-C06 (CDR-grafted IgG1:kappa version) (human); assay: as above
humanized PBD-C06 (CDR-grafted IgG1:kappa version) (human), sequence (heavy, as listed by the source, chain 1 of 2): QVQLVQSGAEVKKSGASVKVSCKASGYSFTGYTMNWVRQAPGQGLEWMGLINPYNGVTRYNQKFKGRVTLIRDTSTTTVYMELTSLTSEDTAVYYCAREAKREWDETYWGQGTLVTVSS
humanized PBD-C06 (CDR-grafted IgG1:kappa version) (human), sequence (light, as listed by the source, chain 2 of 2): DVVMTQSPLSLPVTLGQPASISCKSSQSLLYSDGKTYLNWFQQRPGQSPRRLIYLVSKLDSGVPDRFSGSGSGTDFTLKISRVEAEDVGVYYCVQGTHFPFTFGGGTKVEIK

humanized PBD-C06 with A97 of the VH framework substituted by murine T97 (human), sequence (heavy, as listed by the source, chain 1 of 2): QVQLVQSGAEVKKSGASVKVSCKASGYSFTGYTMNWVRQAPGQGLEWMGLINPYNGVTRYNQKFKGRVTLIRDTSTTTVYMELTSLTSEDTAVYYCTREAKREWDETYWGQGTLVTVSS
humanized PBD-C06 with A97 of the VH framework substituted by murine T97 (human), sequence (light, as listed by the source, chain 2 of 2): as the sequence (light, as listed by the source, chain 2 of 2) above

Kd [1]: 5.3 nM | Kd [2]: 43.5 nM
Substance: pE3-Aβ(3–18) monomer (peptide)
